Data as given in patent US20210238252A1.

Target: Fc receptor CD16 (UniProt P08637)
Test: cell-based or functional assay

Chain of Fc receptor CD16 (P08637 17-254 limits assumed): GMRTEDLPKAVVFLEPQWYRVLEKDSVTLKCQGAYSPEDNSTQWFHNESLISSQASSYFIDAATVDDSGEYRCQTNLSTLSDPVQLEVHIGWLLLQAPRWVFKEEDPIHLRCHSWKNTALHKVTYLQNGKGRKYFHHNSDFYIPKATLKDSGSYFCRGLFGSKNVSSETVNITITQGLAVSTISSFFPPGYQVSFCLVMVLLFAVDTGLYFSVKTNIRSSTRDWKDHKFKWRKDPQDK

IgGb12 (antibody) showed an IC50, ADCC: killing of BaL-infected CEM.NKR.CCR5+ Luc cells by KHYG-1 CD16+ NK cells of 0.0662 µg/mL.
